In the domain aggregation screens of Martell et al. (2025):

Assay: soluble fraction after stress (log2 fold change); higher = more stays soluble; pooled small domains, quantitative proteomics
Settings: stress: 50 degC
Method in brief: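 After stress at 50°C, the amount of each protein still soluble was measured. This was done on pooled custom libraries of small protein domains, using high-throughput quantitative proteomics. The figure given is a base-two log fold change and stands for aggregation propensity, with higher values meaning more protein stays in solution.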

| Sequence | soluble fraction (log2) |
| --- | --- |
| HMATETMGMIIRRLRREHGLTQEELAASIGVTAQAVSKWEKDLGMPDISQIVPLAGAFNVRTDVLFGLE | -0.98 |
| HMATEWLSSKEAAQRLGVSAATLYAYVSRGLLRSEGSSGQRERRYRADDVAQLRRRREVGRKAESIAASTL | -0.433 |
| HMATHWHITPNPNNGKFLISGLMQDDSFHLMDASGQWLRQLRTVNQELDLDLQPGVYFLKDNSGSVMKFVV | -0.98 |
| HMATIADILAEHKDKEGPLLPVLHDVQKMFGHVSEEAMREIAQALNLTRAEVYGVVSFYHDFRKEVE | -0.975 |
| HMATIIGSIGIVTQKVGLTGVPGRVYVNNESWAAISANGKEIENDTQVIVVKIDGATLIIEKKG | -1.47 |
| HMATKEQIKRIYGLGAGLGIVGKDKDDMLHELIFSITGKDSVKQLDDSEFKAVQAELINRMKLA | 0.132 |
| HMATLAVPNLMRLSQGEAMALIRLSGLSIGNVSIDSSMGSPRVIRQEPQASGGMLVLTQGDQVHLWLEGP | -3.2 |
| HMATLQLPVPKITLYPGELIRSDHLTDQRFNARALYHSAVYKSREDIVGKVARRTLLPGQPIPVNALR | -0.057 |
| HMATPKRGFRKQLAPLVQSGTITREEAGELSRSSGDATALRTKIGELMKAGKLTRKEAGELYSDAFPENA | 0.153 |
| HMATPYISMAGIGKSFGPVHALKSVNLTVYPGEIHALLGENGAGKSTLMKVLSGIHEPTKGTITINNIN | 0.384 |
| HMATRAEQMAKTHQAILDTARELFLRNGYDATSTRDIANAIGITQPALYHHFKDKEVIFLAVI | -0.172 |
| HMATSLTEQEKLIFGLLKKQSPIELSSLKEQAGLSNKKWDKAIKGLSTQQLAKVTKTENGLFVHLLQ | 0.148 |
| HMATTAGIEKYLGSGLIKGIGPIYAKKIVRKFKEDTIRIIDEEPDRLLEVEGIGQKRLEIIKQAWQQQKE | -0.391 |
| HMATVHVDGIQYDFSSPEQAKEFAYKWAKKHNLTWEVHGETIHIK | -0.0845 |
| HMATYNEVLKRLIEERKRLGLSQQEMARLVHITQSNYSKVEKGLHRLSYEELKYLSKANVDIFYILT | 0.136 |
| HMAVANEAIANINMKEVKQAIHNLPEIFKNPFLLYFDGYKYHEIAEMLDEPLGTIKSRIHFARKLLKSHI | -0.674 |
| HMAVDVNKATAAELDSIKGIGPAISAKILEEKKKGGNFKDWNDLVTRVSGVGEANAAKFSSEGLTVGGAS | 0.0629 |
| HMAVELPLETTLDIVRKYARNQEVDRRAERVEAVSAEALQTLAPRGTKLASEIVEQAKTQVLEELA | 0.177 |
| HMAVKYTKDDFLYTEKPYEAIYDYKNDPFMHNLKIEQMAQQAAEVGVKTFKGLYKNYVKMREMQRGANV | 0.14 |
| HMAVNSALVQRNWLIGYRIAEEELQGDNRAEYGASIIKKLAKELTAEYGKGYTKTNLYHFYSFYKT | -0.136 |
| HMAVNVNGIHLSSQQHEALVSIWRTGRMPEPHAGQKPWLWIQALRRRGLVSGNALRLTDKGRHIVQLLQ | 0.142 |
| HMAVPAALVQAWLELSRRMVAGTQDVGERFAEEARKMHYGETEDRGIRGQATLTEVRDLLDEGIEVLPLLL | -0.392 |
| HMAVPLVRGTVTSSVGTVLLLSVGERDFFLSEGEEKDGVLLQSLSEKSAVVVVSGRAYTLSL | -0.408 |
| HMAVRLADMAAEKIRKMIIENKFDAGEPLSEMRLAEMFNVSRTPIREAIAILEQEGLLTTVHGKGAFIS | -0.367 |
| HMAVSDAAEEYGKAGTPLVILAGKEYGSGSSRDWAAKGPYLQGVRAVLAESYERIHRSNLVGMGIVPLTYK | 0.0654 |
| HMAVSDPTAGGIKALMYPNPAQDRLSVALDIPAGLDKQAQMTVTDMMGRVVTQQQVTLNDGFQVFEL | 0.215 |

| Sequence | soluble fraction (log2) |
| --- | --- |
| HMAVSSYSVKRYIRNMIQAEDPSAPFSDEALRLALLAHGIAVSRRVVTKYRMAMDIPSSSQRRKR | -0.866 |
| HMAVSTFGRITASSLNVRSGPSTDHEKVGSLAAGRVVELLEESDGWYRIENGYISTEYVTIVDPSQ | -0.355 |
| HMAVTEVKTTAVVNMRSSDSEKADKLGKAQIGDTFRVLEQRANGWTKLTDGTQEFFIKSEYLEAIA | 0.0956 |
| HMAVVAPLAGSVARVLVADGDEIEAGQVLLVLEAMKMETEITAPKAGKVGAILVGKGDSVQGGQGLR | -0.051 |
| HMAYLTGFHAIEELIRAGKAKGPLLVANAGPRARTIMSLATDNKIRIDRLGEHELNRLAPGNRGIALYVE | 0.13 |
| HMDAAYVYVIGTRVNQRAGPSTSNAVMGVLSEGTRVETLRDEGQWTQIRSNFGTGWMSSSFLSSVAP | -1.55 |
| HMDADRILHKTLKPRELEIYQLIKAYLEEHSQIANAKVQEISGLSEATTRRYLNIFVEFGLLKTS | -0.0476 |
| HMDADTVGQIRVVKQILDDGRLIVVDASGNPVLVRRSSALSLTAISQGDRIIVDPSVRLAIELLPNE | 0.185 |
| HMDAEELNSKAKDEFTWLEDDESETNLEYRKMVSSEDMAIVAKVAPALAAKLKYQLAHAATNMV | 0.0207 |
| HMDAEVEHLFRIIAELKEKNVAIIYISHKMDEIFRISDDITVYRDGEYIATDRAENLNVDKVIQLMVGREV | -0.339 |
| HMDAEWRTLTLAPEQHQQRLDRALADSLPEFSRSYVQQLIDTGMVRVNGVLAAKSAQRVKALDQVQVELR | -0.229 |
| HMDAGIVVPDTYNKPLAEAVASLEGEGFRTEKKEGYSDTVAKGNVMSQNPEAGTNAERGSTVTIVISQGPQ | 0.0495 |
| HMDAINYEDFQLLIKQRGSFKVAFEDIMFSTKVAIEKKEDFYDFVTKLIDNGFNNMAYNYLEGFQD | -2.09 |
| HMDAISYTQFMEEAKQGRINKVEVQGRTLMVTPTDGKAYSLTSPGDLWMTTDLMKYGVNVYGAE | -0.00324 |
| HMDALKAVYQWVTRTMMKNQTGVMQTLPNRDLIELNTQITAQRLMQAGVDPTTLKNANQVENAVNIIESR | -0.473 |
| HMDAMGAVGIARAFISAGERGGDISDGLEHMHGKLLRLSSLMYTRSGKKMAARRHELLSSFVQALEEEIK | -0.174 |
| HMDAMQAFPNPTVDEIHFVTPTTGRVYNAHGQLVMVLKNAQLVNVRQWSAGQYVIVREDGYAVRWIK | -1.04 |
| HMDAPQRVTYLLPHSRGEVVSWLHRQGEVVAQEYEAEGVRVVVDLRYAQIRQAAKQFDVLPAEG | -0.0612 |
| HMDAPRFAAGDAVRVAGLVSKPQHNGRAGSVLSYDPVSLRYIVKVDGEDEPLKLKPENVLMPA | 0.136 |
| HMDAQLRVPDLTPYNYSELKENTSLYEGFTIEVVEERSTGDYAAGTVLDQDPKADTLIQDGDSTVIKLVIA | -0.12 |
| HMDASFTYSLETHPAGVLVRVDGLEYETPFSILLPQGVHRLEVAGEERFFYLSETTHQFLEID | -0.901 |
| HMDATGDPIADRILQALQLGELTRTQVNNVFQRHLAAARISQALNFLRSLKRADMRMEETAGRSGEVWFAI | -0.341 |
| HMDAVKKKVQSTNTLLDVLKQMLPQTSSNTLRKMLTNQRITVDGETIHRAKHTVEKDQTVEIHPKP | 0.256 |
| HMDAVSYTQFMQDAKAGRIKKVIVHQSGILDVTTTEGRRFNLTSPGDLWMVGDLVKDGVDVVGAP | -0.0657 |
| HMDAVTYAKGSSGETVREIQQLLLDWGYYSGEVDGIFGSRTEDAVEYFQRKNGLTVDGKVGPATLEALGIS | -0.0183 |
| HMDAYMIGHNIAKWRKEKGMTQDQLAEHLSVSGQAVSKWENGASLPDIAILPKLAEIFDVTMDQLFSR | 0.144 |

| Sequence | soluble fraction (log2) |
| --- | --- |
| HMDDAIAEKTGGAVSSVNQRQAILDHIREAYGIELESLRSTDIERYLDDPEIPEPVKDILRDRLRGAK | 0.181 |
| HMDDDAELLLKKLSAAGGELPFHDRSEPAEIEAAFGLSKSAFKRALGKLLKAGKVVKTQQGIQLK | 0.0395 |
| HMDDDIKNALDVLPEQYRMTVYYADVEGLAYKEIGAIMNTPIGTVMSRIHRGRSQLRVLLAAVAADR | -0.0377 |
| HMDDFITLVIHTPAHAQNLRNILESHGMEVRLEDFVSFKSPVAVAQRVKIRPKDLPLALKIIESGE | 0.227 |
| HMDDFVEIDGKKYEIDMSFDNILRLFDLLKDKSLNDVTKIETGLIMLIDDSLDDYDTEEKADIFVQIF | -0.0316 |
| HMDDGALQIRLGPQALQQRLDKLGYSLNKEDLDLVYQYFLHSADSKGAVYDQELRELMGEAGVE | -0.0408 |
| HMDDIHTFVYETETPFDPQKLDRYIGSLTAVYGQDMLRYKGILYFAGVDRRVVFQGVHMLAV | -0.0916 |
| HMDDILAYEIEDKEDLENLSLGKSIGINLNKLIKPTLNSFDNSLLFLSKKGNIISYGKLNGDLFKPKKVL | 0.0598 |
| HMDDINVSNSKNIVPNVTGHTGSKAIPVLENLGLDVQYSGFGKVTNQSIPAGTRFKKGETIYLMLE | 0.0979 |
| HMDDIVFPNPTKNQINVSIDGLKNIYNLSGKLLISTNDKIIDVSILKAGVYFINTNEQFYKFVK | -1.3 |
| HMDDIVPHSTKNHIIKTFLSLMNSLDIITDKNKKSLNQNVHIIFNKFNFSKKEANLFIGVLNRIQKALK | 0.552 |
| HMDDLFGNAIEMFNNQRYDMTYELLVQLLSETPNNEKAWQLLADTKFMLGDYDDALHIVGKAAK | -0.89 |
| HMDDPWHNLANAIVAVAADDYRSALRNEDEGLLKSLELFFHSEWYRILTDVDADRLLGMLRRERS | -1.62 |
| HMDDTPLNNVIKKIAALPENITLADKSAVLSAWEAYQALSVNLKAQVSNSELLIKAYETILQLEGEDQIK | 0.235 |
| HMDDYRIEDMMTVVEEQVIRQKETNLSWFFKRAGSLNEIITIFLAALELIKVHRVYVKQEHNFDDIILRKE | 0.133 |
| HMDEAAGVLTQLRAFIAASNLSPGLRLPPERELAEQLGVTRAELRKALAVLEAEGLLWRQVGKGTFYGARP | -0.481 |
| HMDEAEELYQAVQALKPKYREVILLHYYQGLRVGEIAAILRAPQSTVSIRLRRARQMLNRMLG | -0.548 |
| HMDEALLRATLLDVLVKHHPKIGDKLDVVFALAKAWVSSGSDDDFEVLEKYMERLKPDEALMLASGFSNML | -0.972 |
| HMDEDTWKLYKRAYKKYYARYMKGNMSEAAFKAWGEQAAADRDAAIEQLRATTDAALSASIIQQLKEKLNR | -0.581 |
| HMDEEDVLNELIRRLALTADDRLLLSLSYEDGLSSRKIATLLETSAATVQRRLAGLHHQLEQALRVMGLA | -0.454 |
| HMDEEGDALDREYEDQIRLGDEAFDAEDWTSAQRAYTAALELRPDERYPKNRLRRLASLQEDV | 0.0779 |
| HMDEETVALQKAIHSLPPKQQAVFNMRYYDEMSFREIADANETTESSAKANYHFAKAKIIEQMKR | 0.101 |
| HMDEILHHPSYRAIYEYMLDHKHVKTKDIAALLNVKEPRARQLLKEMIDKHFIIALGSNRNREYELL | -0.495 |
| HMDEKSGWLHLAPHEGALRAALYAEHAVQEERTAPDGSQWLRLVLREKHYHQIQSKYNRRLTLHTQPDPS | 0.113 |
